Laboratory results from patent US8354508B2.

Target: T1, Boc-QAR-AMC
T1 sequence (peptide, N-terminal Boc; C-terminal AMC): QAR

human Pro115 on cells (enzyme)
fluorescence of cleaved Boc-QAR-AMC (370 nm excitation, 450 nm emission), cell-based protease assay: 3 times
